Experimental findings from patent US20180362665A1 (KATHOLIEKE UNIVERSITEIT LEUVEN, published 2018) are described below.

This experiment has as its target ovine ADAMTS13 (in sheep plasma) (sheep). The experiment is described as follows: cell-based or functional assay.

B1: anti-ADAMTS13 monoclonal antibody 17C7 (antibody, V domains shown)
VH: EVQLVESGGDLVKSGGSLKLSCAASGFIFSNYAMSWVRQTPEKRLEWGATITTGGFYTFYSDSVKGRFTISRDNAKNTLYLQMSSLRSEDTAMYYCARHRYDDYYALDYWGQGTSVTVSS
VL: ENVLTQSPAIMSTSPGEKVTMTCNVSSSVSYMRWFQQKSSTSPKLWIYDTSKLASGVPGRFSGSGSGHSYSLTISSMEADDVATYYCFQGNGYPLTFGAGTKLELK
Consider B1, for which the “half maximal inhibitory concentration (IC50) of ADAMTS13 activity in ovine plasma, FRETS-VWF71 assay” value came out at 2.4 µg/mL.
